From patent US20090075291A1 (RESEARCH FOUNDATION OF STATE UNIVERSITY OF NEW YORK, published 2009)

Assays:
[1] = molecular target: Cx43 expressed in N2a cells (Cx43 gap junction channels); experiment: cell-based or functional assay
[2] = molecular target: T1, Recombinant Cx43CT (carboxyl terminal domain of rat connexin43, residues 255-382, preceded by GPLG) (rat, UniProt P08050 255-382); experiment: SPR, Cx43CT immobilized, 1:1 Langmuir kinetic fit, pH 6.5 and 7.4
T1 construct: range 255-382; Made in E. coli as a GST fusion (pGEX-6P-2) and cleaved from GST; the protein used was derived from rat cDNA; 15N-labeled for NMR; also called recombinant CT; 15N-Cx43CT
T1 sequence (P08050 other isoform, or with tags, fused parts or gaps limits assumed): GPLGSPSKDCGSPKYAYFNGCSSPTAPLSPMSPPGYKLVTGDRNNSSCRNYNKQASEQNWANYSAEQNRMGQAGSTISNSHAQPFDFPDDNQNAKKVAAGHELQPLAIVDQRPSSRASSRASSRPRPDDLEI
Procedure: A total of six 12-mer peptides from the non-biased screening (peptides labeled RXP1 to RXP6 in Table 1) and 5 peptides from the biased screening (labeled RXP-A to RXP-E in Table 3) were tested. […] Peptide RXP4 (SEQ ID NO:15) caused the largest deflection in SPR signal. RXP4 (250 μM) was added at time “zero.” Washout was initiated after two minutes of exposure. […] Higher concentrations of the peptide were tested but an asymptotic maximum response could not be detected. In addition, dissociation rates were too fast to reliably use them to calculate the kinetics of binding.
A different result emerged from the testing of the doublets. […] In contrast, peptide RXP-E (SEQ ID NO:10) generated a large, concentration-dependent deflection followed by a slow dissociation upon washout, as shown in FIG. 3B. The transitions were well-fit by exponential functions and the rates of association and dissociation were used as described in Example 4 to estimate the kinetic parameters. A full range of concentrations was tested in three separate occasions and at two different pHs of the solvent (6.5 and 7.4). No differences were observed as a function of pH.

[3] = molecular target: T2, Cx43 from rat heart lysate (rat, UniProt P08050 2-382); experiment: Cx43 pulldown assay, percent binding relative to RXPE; Example 19 does not state the source of Cx43
T2 construct: Native protein pulled down from a tissue lysate; also called cardiac Cx43
T2 sequence (P08050 2-382 limits assumed): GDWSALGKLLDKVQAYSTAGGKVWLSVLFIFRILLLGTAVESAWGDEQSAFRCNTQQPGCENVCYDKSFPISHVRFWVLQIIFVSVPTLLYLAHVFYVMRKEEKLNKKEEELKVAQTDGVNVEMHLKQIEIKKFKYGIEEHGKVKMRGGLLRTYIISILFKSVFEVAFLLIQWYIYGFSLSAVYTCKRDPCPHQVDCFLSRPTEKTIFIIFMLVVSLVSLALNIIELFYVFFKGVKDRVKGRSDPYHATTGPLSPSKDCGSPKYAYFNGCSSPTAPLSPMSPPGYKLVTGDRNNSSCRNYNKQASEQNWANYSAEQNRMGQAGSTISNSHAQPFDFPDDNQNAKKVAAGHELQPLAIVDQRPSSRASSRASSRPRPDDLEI

[4] = molecular target: T1, Recombinant Cx43CT (carboxyl terminal …); experiment: SPR, peptide 1.0 mM
[5] = molecular target: T1, Recombinant Cx43CT (carboxyl terminal …); experiment: SPR, Cx43CT immobilized on carboxymethyl dextran
Procedure: Recombinant Cx43CT was covalently bound to a carboxylmethyl dextran matrix (Salamon et al., “Surface Plasmon Resonance Spectroscopy as a Tool for Investigating the Biochemical and Biophysical Properties of Membrane Protein Systems. II: Applications to Biological Systems,” Biochim. Biophys. Acta 1331(2):131-152 (1997), which is hereby incorporated by reference in its entirety). Specific peptides were presented and, when feasible, dissociation constants (KD) were calculated from the time course of binding and unbinding of the ligand, using a 1:1 (Langmuir) association and dissociation kinetic model (Biacore software package). In both phases (association and dissociation), the first 5-8 seconds of recording were not included in the fit, to avoid artifacts resulting from peptide distribution within the flow cells (Lang et al., “Surface Plasmon Resonance as a Method to Study the Kinetics and Amplitude of Protein-protein Binding,” in PRACTICAL METHODS IN CARDIOVASCULAR […] 936-947 (Stefan Dhein, Friedrich Wilhelm Mohr & Mario Delmar eds., 2005), which is hereby incorporated by reference in its entirety).
Phage display allows for the rapid screening of thousands of peptides, but the characteristics of binding cannot be properly defined. Furthermore, the peptides are part of a capsid protein, which may affect the ability of the peptide to properly interact with the target protein. Therefore, some of the peptides identified by the phage screening were selected to, using SPR, further characterize their ability to bind Cx43CT. Recombinant Cx43CT was covalently bound to a carboxymethyl dextran matrix and synthetic peptides presented for binding. A total of six 12-mer peptides from the non-biased screening (peptides labeled RXP1 to RXP6 in Table 1) and 5 peptides from the biased screening (labeled RXP-A to RXP-E in Table 3) were tested. […] Peptide RXP4 (SEQ ID NO:15) caused the largest deflection in SPR signal. RXP4 (250 μM) was added at time “zero.” Washout was initiated after two minutes of exposure.

Binder	Response Dose [4] [arbitrary units]	binding result [5]	also measured
SDDLRSPQLHNGGGSAVPFYSHSHMVRRKPRNPR (Synthetic doublet peptide from the biased phage display screen) [RXP-E]	–	–	junctional conductance (Gj) relative to control at pipette pH 6.2 (acidification-induced uncoupling) [1]: 57 % of control; junctional conductance (Gj) relative to control during octanol superfusion [1]: 57.6 % of control; Kd [2]: 3.9 µM
SDDLRSPQLHNGGGSAVPFYSHSHMVRRKPANAR (also called RXPE mutant (31,33A)) [29]	–	–	binding result [3]: no binding
SDDLASAQLHNGGGSAVPFYSHSHMVRRKAANPR (also called RXPE mutant (5,7,30,31A)) [31]	–	–	binding result [3]: no binding
SDDLASAQLHNGGGSAVPFYSHSHMVRRKPANAR (also called RXPE mutant (5,7,31,33pa)) [58]	–	–	binding result [3]: no binding
Ac-RRKPRRKP-NH2 [Peptide 2503, AcRRKPRRKP-NH2]	295	–	–
Ac-RNPRNP-NH2 [Peptide 2501, AcRNPRNP-NH2]	24.8	–	–
Ac-RRKP-NH2 [Peptide 2504, AcRRKP-NH2]	46.5	–	–
Ac-RRNP-NH2 [Peptide 2505, AcRRNP-NH2]	34.9	–	–
DVPGRDPGYIKGGGSAHARVPFYSHSLNRNRKPSLYQ (Synthetic doublet peptide from the biased phage display screen) [RXP-A]	–	no binding	–
EIQPRSPLMFSGGGSAHARVPFYSHSAKEARWPRAHR (Synthetic doublet peptide from the biased phage display screen) [RXP-B]	–	no binding	–
GIAAREPNSHDGGGSAHARVPFYSHSRDLWRKPAKSL (Synthetic doublet peptide from the biased phage display screen) [RXP-C]	–	no binding	–
WEEPRRPFTMSGGGSAETHARVPFYSHSPMRHRLPGVHL (Synthetic doublet peptide from the biased phage display screen) [RXP-D]	–	no binding	–
